The DeepSol protein solubility set

Experiment: soluble on expression in E. coli; label from the status in PepcDB or PDB records

Row | Sequence | soluble on expression in E. coli
1 | MGHHHHHHSHMEAPPVTMMPVTGGTINMMEYLLQGSVLDHSLESLIHRLRGLCDNMEPETFLDHEMVFLLKGQQASPFVLRARRSMDRAGAPWHLRYLGQPEMGDKNRHALVRNCVDIATSENLTDFLMEMGFRMDHEFVAKGHLFRKGIMKIMVYKIFRILVPGNTDSTEALSLSYLVELSVVAPAGQDMVSDDMKNFAEQLKPLVHLEKIDPKRLM | soluble
2 | MGHHHHHHSHMEFPFDVDALFPERITVLDQHLRPPARRPGTTTPARVDLQQQIMTIIDELGKASAKAQNLSAPITSASRMQSNRHVVYILKDSSARPAGKGAIIGFIKVGYKKLFVLDDREAHNEVEPLCILDFYIHESVQRHGHGRELFQYMLQKERVEPHQLAIDRPSQKLLKFLNKHYNLETTVPQVNNFVIFEGFFAHQHRPPAPSLRATRHSRAAAVDPTPAAPARKLPPKRAEGDIKPYSSSDREFLKVAVEPPWPLNRAPRRATPPAHPPPRSSSLGNSPERGPLRPFVPEQELLRSLRLCPPHPTARLLLAADPGGSPAQRRRTR | not soluble
3 | MGHHHHHHSHMEGMDVDLDPELMQKFSCLGTTDKDVLISEFQRLLGFQLNPAGCAFFLDMTNWSLQAAIGAYYDFESPNISVPSMSFVEDVTIGEGESIPPDTQFVKTWRIQNSDVIWVILSVEVGGLLGVTQQLSSFETEFNTQPHRKVEGNFNPFASPQKNRQSDENNLKDPGGSEFDSISKNTWAPAPDTWAPAPDQTEQDQNRLSQNSVNLSPSSHANNLSVVTYSKGLHGPYPFGQS | soluble
4 | MGHHHHHHSHMEPGEELEEEGSPGGREDGFTAEHLAAEAMAADMDPWLVFDARTTPATELDAWLAKYPPSQVTRYGDPGSPNSEPVGWIAVYGQGYSPNSGDVQGLQAAWEALQTSGRPITPGTLRQLAITHHVLSGKWLMHLAPGFKLDHAWAGIARAVVEGRLQVAKVSPRAKEGGRQVICVYTDDFTDRLGVLEADSAIRAAGIKCLLTYKPDVYTYLGIYRANRWHLCPTLYESRFQLGGSARGSRVLDRANNVELT | not soluble
5 | MGHHHHHHSHMETIGAKALEDFADNIKNDPDKEYNMPKDGTVHELTSNAILFLQQLLDFQETAGAMLASQETSSSATSYSSEFSKRLLSTYICKVLGNLQLNLLSKSKVYEDPALSAIFLHNNYNYILKSLEKSELIQLVAVTQKTAERSYREHIEQQIQTYQRSWLKVTDYIAEKNLPVFQPGVKLRDKERQIIKERFKGFNDGLEELCKIQKAWAIPDTEQRDRIRQAQKTIVKETYGAFLQKFGSVPFTKNPEKYIKYGVEQVGDMIDRLFDTSA | not soluble
6 | MGHHHHHHSHMGGLPMISASLQQRKTRTRRSMLFVPGANAAMVSNSFIYPADALMFDLEDSVALREKDTARRMVYHALQHPLYRDIETIVRVNALDSEWGVNDLEAVVRGGADVVRLPKTDTAQDVLDIEKEILRIEKACGREPGSTGLLAAIESPLGITRAVEIAHASERLIGIALGAEDYVRNLRTERSPEGTELLFARCSILQAARSAGIQAFDTVYSDANNEAGFLQEAAHIKQLGFDGKSLINPRQIDLLHNLYAPTQKEVDHARRVVEAAEAAAREGLGVVSLNGKMVDGPVIDRARLVLSRAELSGIREE | not soluble
7 | MGHHHHHHSHMHISGVFATKDAVAVWNGRQVAIFELSGAAIRSAGTFLCETPVLAMHEENVYTVESNRVQVRTWQGTVKQLLLFSETEGNPCFLDICGNFLVVGTDLAHFKSFDLSRREAKAHCSCRSLAELVPGVGGIASLRCSSSGSTISILPSKADNSPDSKICFYDVEMDTVTVFDFKTGQAWCLALVEVGPKGPSARDASAETRVWETPHALHLPAPPSWRGPGSVGKGSCER | not soluble
8 | MGHHHHHHSHMIDILDVKSRATIQDLGRFGLRRFGISHCGAMDKLALRAGNILLGNAENVPAIEVPLGGITLQFQQDMNFCVTGAFYEMMLDDKPVFAYWRYQVRAGQILKMARAKIGMYGYLCVQGGFVLPQALNSCSTDLRAQIGGIEGRCLQAGDQLQTANDHILRSEIGIAPIPLRDVIRALPSSEYQAFKRKSQYYWWRNEWTLQSNSDRMGYRFQGQTLELKQPLEMLSHAIQFGSVQVPPSGQPIILMADAQTTGGYPKIANVIDADLGALAQVRLGSTIKFEAVSLQEAAKLRRKNEIYLDQIRRIVDEKN | not soluble
9 | MGHHHHHHSHMKANLSLLRRPGEKTYTQRCRLFVGNLPADITEDEFKRLFAKYGEPGEVFINKGKGFGFIKLESRALAEIAKAELDDTPMRGRQLRVRFATHAAALSVRNLSPYVSNELLEEAFSQFGPIERAVVIVDDRGRSTGKGIVEFASKPAARKAFERCSEGVFLLTTTPRPVIVEPLEQLDDEDGLPEKLAQKNPMYQKE | soluble
10 | MGHHHHHHSHMKFEAFKIVPVGYIRKEKNVFIEILPEFREGMEGLREGDWIKLILWFHKSDTPELRRILKVHPHGNPENPLTGVFATRSPFRPNPYTVKVHKIEGNRIYIDWIDAEDGTPVSDIKIFPERYDCPKENYQSTSRLKS | soluble
11 | MGHHHHHHSHMKFRAKIVDGACLNHFTRISNMIAKLAKTCTLRISPDKLNFILCDKLANGGVSMWCELEQENFFNEFQMEGVSAENNEIYLELTSENLSRALKTAQNARALKIKLTNKHFPCLTVSVELLSMSSSSRIVTHDIPIKVIPRKLWKDLQEPVVPDPDVSIYLPVLKTMKSVVEKMKNISNHLVIEANLDGELNLKIETELVCVTTHFKDLGNPPLASESTHEDRNVEHMAEVHIDIRKLLQFLAGQQVNPTKALCNIVNNKMVHFDLLHEDVSLQYFIPALS | soluble
12 | MGHHHHHHSHMKVAQAKLKEIGPDDMNMEEYKKWHEDYSLFRKVSVYLLTGLELYQKGKYQEALSYLVYAYQSNAALLMKGPRRGVKESVIALYRRKCLLELNAKAASLFETNDDHSVTEGINVMNELIIPCIHLIINNDISKDDLDAIEVMRNHWCSYLGQDIAENLQLCLGEFLPRLLDPSAEIIVLKEPPTIRPNSPYDLCSRFAAVMESIQGVSTVTVK | not soluble
13 | MGHHHHHHSHMLNSTGELEFSNEEDPEIISQLTSLPLSGGKSSAGVPEKTGYPDSVYVMAANIFQGIRIEKSAQKVLIKYGNEPLRSLSESEDQSFQRLSYELAFSALKYQDILETILIDSCIFPSTTTPDHLSSLIIVMLYDFQDRKFQTRVLSDNEEPISEVQEVENLLNSFKIKLAAALARCRIKHDALSIYHILPETVRKQELRASTLPLYAWINTCKISPEEVYNNLKRRGYNKVKSVLHIDDKVFAVDQHCYDVLIFPSHLKNDLINIDLFKDYKLIFQVN | not soluble
14 | MGHHHHHHSHMLRILKKDCALTGGEVTLANQTKIFYVIKAPSLCSLVGSPSSDSVTSQELFKTFPCETPLSMPLVSTSNPLLSIVRLMVSPKPYDLTGVLCFGEDHETHYILRRVAKILTMTQEELDTICDIELHFSSNETLSSNRVPSRLTESIFPGLVPTVHFPQNMILSRGFFTGGNGPIIKHVAQTHHLTSDFVARVFYALKTPQAHAPGAAQLYRGLQIMNHAHNGLDFFPSDSDINDMQQMFLKHVLLSRKGTDSCAQMFFQAYLPVAPEVLGPEVIERVELALAKIELFANNTVFCMSTISTIVRPRIQVTTSANIKYIRMANKYFTMFPPINKDTAVIFGAAVLDQICKETPIREIVLVLRKYAHVVRRPHTPTIKLYTVLTL | not soluble
15 | MGHHHHHHSHMLVDNLYRVVSNQKDAAVIRVHLEVNASHEIFKGHFPEVPVLPGVCMVQCIKELIEESLLVKTQIDKGDMIKFLSMLNPVESNSIQAEISIKEKTETRIVFQATLKNEDRFLLKYSGSLVVLN | not soluble
16 | MGHHHHHHSHMPLTSAFRAVDNDPGIIVWRIEKMELALVPVSAHGNFYEGDCYVILSTRRVASLLSQDIHFWIGKDSSQDEQSCAAIYTTQLDDYLGGSPVQHREVQYHESDTFRGYFKQGIIYKQGGVASGMKHVETNTYDVKRLLHVKGKRNIRATEVEMSWDSFNRGDVFLLDLGKVIIQWNGPESNSGERLKAMLLAKDIRDRERGGRAEIGVIEGDKEAASPELMKVLQDTLGRRSIIKPTVPDEIID | soluble
17 | MGHHHHHHSHMQYMYFKAEPYAADEGSGEGHKWLMVHVDKRITLAAFKQHLEPFVGVLSSHFKVFRVYASNQEFESVRLNETLSSFSDDNKITIRLGRALKKGEYRVKVYQLLVNEQEPCKFLLDAVFAKGMTVRQSKGELIPQLREQCGLELSIDRFRLRKKTWKNPGTVFLDYHIYEEDINISSNWEVFLEVLDGVEKMKSMSQLAVLSRRWKPSEMKLDPFQEVVLESSSVDELREKLSEISGIPLDDIEFAKGRGTFPCDISVLDIHQDLDWNPKVSTLNVWPLYICDDGGVIFYRDKTEELMELTDEQRNELMKKESSRLQKTGHRVTYSPRKEKALKIYLDGAPNKDLTQD | not soluble
18 | MGHHHHHHSHMRLTLLCCTWREERMGEEGSELPVCASCGQRIYDGQYLQALNADWHADCFRCCDCSASLSHQYYEKDGQLFCKKDYWARYGESCHGCSEQITKGLVMVAGELKYHPECFICLTCGTFIGDGDTYTLVEHSKLYCGHCYYQTVVTPVIEQILPDSPGSHLPHTVTLVSIPASSHGKRGLSVSIDPPHGPPGCGTEHSHTVRVQGVDPGCMSPDVKNSIHVGDRILEINGTPIRNVPLDEIDLLIQETSRLLQLTLEHDPHDTLGHGLGPETSPLSSPAYTPSGEAGSSARQKPVLRSCSIDRSPGAGSLGSPASQRKDLGRSESLRVVCRPHRIFRPSDLIHGEVLGKGCFGQAIKVTHRETGEVMVMKELIRFDEETQRTFLKEVKVMRCLEHPNVLKFIGVLYKDKRLNFITEYIKGGTLRGIIKSMDSQYPWSQRVSFAKDIASGMAYLHSMNIIHRDLNSHNCLVRENKNVVVADFGLARLMVDEKTQPEGLRSL | soluble
19 | MGHHHHHHSHMSETTQTSQSLYQALWNSADVLRSKMDANDYKSYLLGMVFYKYLSDKMLFFVAETMEEETESLDEALAVYRKYYEDEETHEDLLAVITDEMSYAIHPDLTFTALVERVNDGSFQLEDLAQGFRDIEQSDELYENLFEDIDLYSKKLGATPQKQNQTVAAVMKELAVLDVAGHAGDMLGDAYEYLIGQFATDSGKKAGEFYTPQPVAKLMTQIAFLGREDKQGFTLYDATMGSGSLLLNAKRYSRQPQTVVYFGQELNTSTYNLARMNMILHGVPIENQFLHNADTLDEDWPTQEPTNFDGVLMNPPYSAKWSASSGFMDDPRFSPFGKLAPKSKADFAFLLHGYYHLKQDNGVMAIVLPHGVLFRGNAEGTIRKALLEEGAIDTVIGLPANIFFNTSIPTTVIILKKNRTNRDVYFIDASKEFDKGKNQNIMTDAHIEKILNAYKSREDIDKFAHLASFEEIVENDYNLNIPRYVDTFEEEEVEPLTEIVAKINQTNATIESQTASLLDMLGQLHGTTPEADEELKAFVKAFKG | not soluble
20 | MGHHHHHHSHMSGTEEAILGGRDSHPAAGGGSVLCFGQCQYTAEEYQAIQKALRQRLGPEYISSRMAGGGQKVCYIEGHRVINLANEMFGYNGWAHSITQQNVGEYALQQWGLLHCPAPAESLLWVRR | soluble
21 | MGHHHHHHSHMSGVAGGASKKSSSRTMATKKLIIDEFKRRLRDNIKSLNDNFFHIIQAAKVNPDDNAYKNQTGKMTEFYTTKNEMAVRAQLMVRASDELLKLTADLKEFLILHDFHFLTHNIKQAEAQCEETLRQQSHQHNCLDSEVSNILFDLEREIAENFYLRHT | not soluble
22 | MGHHHHHHSHMSLDINQIALHQLIKRDEQNLELVLRDSLLEPTTTVVEMVAELHRVYSAKNKAYGLFNEESELAQALRLQRQGEEDFLAFSRAATGRLRDELAKYPFADGGIVLFCHYRYLAVEYLLVTVLNNLSSMRVNENLDINPTHYLDINHADIVARIDLTEWETNPQSTRYLTFLKGRVGRKVADFFMDFLGASEGLNAKAQNRGLLQAVDDFTAEAQLDKAERQNVRQQVYSYCNEQLQAGEEIELESLSKELSGVSEVSFSEFTAEKGYELEESFPADRSTLRQLTKYAGSGGGLTINFDAMLLGERIFWDPATDTLTIKGTPPNLRDQLQRRTSGGK | soluble
